The results in this text go back to US20130203116, “EXPRESSION AND PURIFICATION OF FUSION PROTEIN WITH MULTIPLE MBP TAGS” (The Regents of the University of California 1111 Franklin …, published 2013).

Series [1] addresses T1, BRCA2 (2XMBP-BRCA2, full length) (Homo sapiens, UniProt P51587 P51587:1-3418). Description: EMSA; strongly preferred over dsDNA; 1 mM MgCl2, 2 mM CaCl2, 2 mM ATP, 37 C. The note with it: tags: N-terminal 2xMBP with PreScission site, expressed in human 293T cells, amylose + HiTrap Q.
The target of series [2] is T1, BRCA2 (2XMBP-BRCA2, full length). Put plainly: EMSA; strongly preferred over dsDNA; slight preference over ssDNA at high salt (0.5-1 M NaCl); 1 mM MgCl2, 2 mM CaCl2, 2 mM ATP, 37 C. The conditions noted are these: tags: N-terminal 2xMBP with PreScission site; expressed in human 293T cells, amylose + HiTrap Q; label: 5'-32P on 167-mer (EMSA); 42 bp duplex with 125 nt 3' ssDNA overhang.

T1 sequence (P51587 whole entry, one chain of several): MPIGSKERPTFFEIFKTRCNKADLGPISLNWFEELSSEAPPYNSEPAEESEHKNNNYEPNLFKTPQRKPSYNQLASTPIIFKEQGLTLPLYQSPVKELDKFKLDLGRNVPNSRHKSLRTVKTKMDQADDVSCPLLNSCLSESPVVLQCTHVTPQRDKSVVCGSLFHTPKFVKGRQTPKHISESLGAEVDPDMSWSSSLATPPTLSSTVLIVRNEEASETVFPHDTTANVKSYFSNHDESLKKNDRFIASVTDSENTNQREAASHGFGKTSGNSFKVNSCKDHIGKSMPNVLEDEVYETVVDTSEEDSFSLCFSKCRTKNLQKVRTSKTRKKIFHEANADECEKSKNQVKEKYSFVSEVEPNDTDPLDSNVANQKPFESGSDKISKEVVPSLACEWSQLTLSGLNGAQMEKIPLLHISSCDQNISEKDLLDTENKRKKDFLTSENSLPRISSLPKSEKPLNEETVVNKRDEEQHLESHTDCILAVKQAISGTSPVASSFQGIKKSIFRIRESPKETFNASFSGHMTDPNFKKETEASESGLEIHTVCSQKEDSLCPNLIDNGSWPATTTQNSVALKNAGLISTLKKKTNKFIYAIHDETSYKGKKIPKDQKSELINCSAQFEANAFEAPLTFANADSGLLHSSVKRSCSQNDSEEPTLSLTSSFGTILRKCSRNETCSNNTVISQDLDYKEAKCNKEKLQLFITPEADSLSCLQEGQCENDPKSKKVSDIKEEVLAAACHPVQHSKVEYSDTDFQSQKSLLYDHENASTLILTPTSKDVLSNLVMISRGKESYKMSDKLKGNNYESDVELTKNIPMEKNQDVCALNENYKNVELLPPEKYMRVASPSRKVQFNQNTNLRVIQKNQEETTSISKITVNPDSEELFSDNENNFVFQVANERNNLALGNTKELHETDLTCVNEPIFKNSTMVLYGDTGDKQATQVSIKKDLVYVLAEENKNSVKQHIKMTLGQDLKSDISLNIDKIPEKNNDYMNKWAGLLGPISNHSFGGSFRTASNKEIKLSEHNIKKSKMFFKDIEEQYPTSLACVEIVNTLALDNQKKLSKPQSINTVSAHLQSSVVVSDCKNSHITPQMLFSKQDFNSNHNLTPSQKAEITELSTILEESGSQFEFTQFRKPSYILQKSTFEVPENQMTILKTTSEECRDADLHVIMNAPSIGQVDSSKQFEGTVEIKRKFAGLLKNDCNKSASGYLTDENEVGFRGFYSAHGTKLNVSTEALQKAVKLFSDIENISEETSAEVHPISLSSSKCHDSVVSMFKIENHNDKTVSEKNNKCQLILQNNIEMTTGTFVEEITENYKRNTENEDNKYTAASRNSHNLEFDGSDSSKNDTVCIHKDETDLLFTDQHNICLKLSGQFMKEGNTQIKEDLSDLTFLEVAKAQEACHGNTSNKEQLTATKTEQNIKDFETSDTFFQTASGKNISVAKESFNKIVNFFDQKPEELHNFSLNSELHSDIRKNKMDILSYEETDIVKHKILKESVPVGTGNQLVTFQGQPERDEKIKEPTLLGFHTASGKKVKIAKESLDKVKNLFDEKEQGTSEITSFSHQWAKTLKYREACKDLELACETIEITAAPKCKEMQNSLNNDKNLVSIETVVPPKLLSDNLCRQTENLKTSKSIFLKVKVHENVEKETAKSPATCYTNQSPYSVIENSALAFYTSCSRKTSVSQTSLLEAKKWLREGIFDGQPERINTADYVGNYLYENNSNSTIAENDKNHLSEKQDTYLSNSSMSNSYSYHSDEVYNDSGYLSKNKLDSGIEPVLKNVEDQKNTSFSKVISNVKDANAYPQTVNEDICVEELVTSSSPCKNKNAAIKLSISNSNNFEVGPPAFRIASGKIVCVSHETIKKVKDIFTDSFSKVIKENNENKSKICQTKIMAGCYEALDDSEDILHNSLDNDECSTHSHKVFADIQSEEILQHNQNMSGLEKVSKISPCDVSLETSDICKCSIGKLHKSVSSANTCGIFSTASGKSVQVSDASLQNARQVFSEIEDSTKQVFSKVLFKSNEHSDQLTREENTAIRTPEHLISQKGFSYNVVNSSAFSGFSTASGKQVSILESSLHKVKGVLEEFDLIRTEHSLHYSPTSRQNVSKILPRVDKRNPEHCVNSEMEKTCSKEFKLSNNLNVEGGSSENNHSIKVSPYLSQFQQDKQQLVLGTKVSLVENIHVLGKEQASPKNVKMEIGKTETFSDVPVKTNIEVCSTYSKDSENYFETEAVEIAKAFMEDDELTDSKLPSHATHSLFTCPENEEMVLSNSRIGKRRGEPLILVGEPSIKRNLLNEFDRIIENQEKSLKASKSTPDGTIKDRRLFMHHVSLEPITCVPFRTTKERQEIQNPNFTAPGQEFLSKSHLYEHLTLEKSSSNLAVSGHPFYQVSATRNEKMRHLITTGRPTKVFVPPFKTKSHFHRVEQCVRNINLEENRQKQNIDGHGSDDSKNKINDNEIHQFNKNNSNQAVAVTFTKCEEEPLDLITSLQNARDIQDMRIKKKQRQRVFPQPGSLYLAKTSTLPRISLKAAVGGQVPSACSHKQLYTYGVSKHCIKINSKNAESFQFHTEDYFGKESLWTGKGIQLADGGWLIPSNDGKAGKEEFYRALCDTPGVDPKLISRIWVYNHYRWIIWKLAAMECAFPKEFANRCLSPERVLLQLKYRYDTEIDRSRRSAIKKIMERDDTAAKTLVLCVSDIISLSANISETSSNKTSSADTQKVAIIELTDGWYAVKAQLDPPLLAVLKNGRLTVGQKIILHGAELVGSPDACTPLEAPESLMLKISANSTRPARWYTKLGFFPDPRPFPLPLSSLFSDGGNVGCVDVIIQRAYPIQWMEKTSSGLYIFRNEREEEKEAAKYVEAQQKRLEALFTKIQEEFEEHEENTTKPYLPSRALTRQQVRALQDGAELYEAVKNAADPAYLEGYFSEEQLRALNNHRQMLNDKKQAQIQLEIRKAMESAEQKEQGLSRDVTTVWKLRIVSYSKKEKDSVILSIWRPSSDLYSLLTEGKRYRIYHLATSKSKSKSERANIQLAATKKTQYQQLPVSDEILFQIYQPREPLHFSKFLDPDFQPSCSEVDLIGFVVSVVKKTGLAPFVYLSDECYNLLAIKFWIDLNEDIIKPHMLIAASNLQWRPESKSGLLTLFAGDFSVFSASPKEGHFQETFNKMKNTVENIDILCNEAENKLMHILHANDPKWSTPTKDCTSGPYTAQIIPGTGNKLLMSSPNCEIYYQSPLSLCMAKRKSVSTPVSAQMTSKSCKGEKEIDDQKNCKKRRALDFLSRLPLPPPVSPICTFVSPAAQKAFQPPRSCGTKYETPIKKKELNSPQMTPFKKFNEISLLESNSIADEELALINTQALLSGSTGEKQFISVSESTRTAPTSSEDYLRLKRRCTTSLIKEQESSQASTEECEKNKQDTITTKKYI

B1: 5' tailed DNA (RJ-5'TAIL-167-mer/RJ-PHIX-42-1) (mixed)
DNA 1: ATTTATTCTATTCCCTTTATTTTCTCTGTTTATTCATTTACTTATTTTGTATTAATTTCCTATATTTTTTACTTGTATTTCTTATTCATTTACTTATTTTGTATTATCCTTATTTATATCCTTTCTGCTTTATCAAGATAATTTTTCGACTCATCAGAAATATCCG
DNA 2: CGGATATTTCTGATGAGTCGAAAAATTATCTTGATAAAGCAG
Take B1: the binding result in series [1] (label: 5'-32P on 167-mer (EMSA), 42 bp duplex with 5' ssDNA overhang) is on record as “binds”.

B2: RJ-167-mer ssDNA (ssDNA)
DNA: CTGCTTTATCAAGATAATTTTTCGACTCATCAGAAATATCCGTTTCCTATATTTATTCCTATTATGTTTTATTCATTTACTTATTCTTTATGTTCATTTTTTATATCCTTTACTTTATTTTCTCTGTTTATTCATTTACTTATTTTGTATTATCCTTATCTTATTTA
Take B2: the binding result in series [1] (label: 5'-32P (EMSA)) is reported as “binds”.

B3: 3' tailed DNA (RJ-167-mer/RJ-PHIX-42-1) (mixed)
DNA 1: CTGCTTTATCAAGATAATTTTTCGACTCATCAGAAATATCCGTTTCCTATATTTATTCCTATTATGTTTTATTCATTTACTTATTCTTTATGTTCATTTTTTATATCCTTTACTTTATTTTCTCTGTTTATTCATTTACTTATTTTGTATTATCCTTATCTTATTTA
DNA 2: CGGATATTTCTGATGAGTCGAAAAATTATCTTGATAAAGCAG
Turning to B3, the binding result in series [2] was “binds”.
